Assay [1] concerns the target T1, human TNFR2 (Novoprotein, Cat #C830) (human, UniProt P20333 23-257, limits assumed).
T1 construct: construct not described; also called human TNFR2 protein
T1 sequence (looked up): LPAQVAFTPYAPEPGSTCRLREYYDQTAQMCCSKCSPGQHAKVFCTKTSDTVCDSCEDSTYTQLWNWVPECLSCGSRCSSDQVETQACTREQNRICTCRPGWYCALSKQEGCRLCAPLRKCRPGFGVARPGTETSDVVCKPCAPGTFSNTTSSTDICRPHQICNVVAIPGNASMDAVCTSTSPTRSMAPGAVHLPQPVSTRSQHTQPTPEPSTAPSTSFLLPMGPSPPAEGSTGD
Briefly: competition ELISA, competitor human TNFα-Biotin; AUC against 219-WT. The procedure:
(§1) 1 μg/ml human TNFR2 (Novoprotein, Cat #C830) was pre-coated with 100 μl/well […] in an ELISA plate. All the test TNFR2 antibodies were subjected to 2.5-fold gradient dilution from the highest concentration of 30 μg/ml; the diluted antibodies were mixed with 15 ng/ml human TNFα-Biotin (Acro Biosystem, Cat #TNA-H82E3) in equal volume, respectively; the resulting mixture was added to the ELISA plate at 100 μl/well, and incubated with shaking at room temperature for 2.0 hours. The plate was washed, and then a Streptavidin-HRP working solution (diluted at 1:10000) was added at 100 μl/well, and the mixture was incubated with shaking at room temperature for 40 minutes. The plate was washed again, and then the substrate TMB of HRP was added to develop colour. A stop solution was added to stop the reaction, and then a microplate reader (MD 13) was used to read the absorbance value. The inhibitory curve of an antibody was drawn with antibody concentration as the abscissa and corresponding OD value as the ordinate, and fitted with four parameters (GraphPad Prism9) to calculate the IC50 value. The smaller the IC50 value, the stronger the ability of an antibody to inhibit the binding of human TNFα to human TNFR2. The blocking effect of a humanized antibody was normalized to its corresponding human-murine chimeric antibody WT. The higher the percentage value, the better the inhibitory effect of the humanized antibody.
(An ELISA detects its analyte on a solid surface through an enzyme-linked reagent.)

The target of assay [2] is T2, human TNFR2 on the surface of CHO-TNFR2 cells (human, UniProt P20333 23-461).
T2 construct: whole, on cells
T2 sequence (looked up): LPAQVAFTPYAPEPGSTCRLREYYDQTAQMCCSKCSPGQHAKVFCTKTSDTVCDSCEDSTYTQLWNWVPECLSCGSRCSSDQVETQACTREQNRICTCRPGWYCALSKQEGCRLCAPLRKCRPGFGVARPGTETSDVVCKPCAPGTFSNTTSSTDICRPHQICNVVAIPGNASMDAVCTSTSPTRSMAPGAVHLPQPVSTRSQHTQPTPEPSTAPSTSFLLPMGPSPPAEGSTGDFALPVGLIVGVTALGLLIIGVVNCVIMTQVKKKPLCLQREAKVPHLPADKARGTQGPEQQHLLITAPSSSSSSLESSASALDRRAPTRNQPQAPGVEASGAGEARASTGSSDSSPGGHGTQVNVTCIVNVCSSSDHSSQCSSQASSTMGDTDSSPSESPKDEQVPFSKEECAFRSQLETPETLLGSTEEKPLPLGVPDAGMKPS
Briefly: flow cytometry on CHO-TNFR2 cells; AUC against 219-WT. The procedure:
(§2) The transfected full-length plasmid of human TNFR2 was purchased from Sino Biological (Cat #HG10417-UT, NCBI Ref Seq: NM_001066.2). The experiment was conducted at a cell density within 80%. The cell medium was discarded; the cells were rinsed with PBS, and digested with 1 ml trypsin for 2 minutes; the digestion was stopped with a Ham's F12 complete medium containing 10% FBS, and then a cell suspension was made. The cell suspension was counted, and then an appropriate amount of cell suspension was centrifuged at 350×g; the supernatant was discarded; a corresponding volume of blocking solution (10% FBS+PBS) at a density of 1×10⁷ cells/ml was added to resuspend the cells, and the mixture was incubated at 4° C. for 30 minutes. After the incubation, the mixture was centrifuged at 350×g to remove the supernatant, and the cells were resuspended in a staining buffer (2% FBS+PBS) to a density of 2×10⁶ cells/ml, and spread onto a 96-well plate, with 50 μl of cell suspension added to each well for later use. The antibody was diluted with PBS for 10-fold gradient dilution from the highest concentration of 20 μg/m (twice the concentration); the diluted antibody was added to the well containing 50 μl of cell suspension, and placed on a microplate shaker for shaking at 500 rpm for 1 minute, so that the antibody was fully mixed with the cells; the mixture was incubated at 4° C. for 1 h. After the incubation, the cells were washed twice with the staining buffer, with 100 μl per well, and centrifuged at 350-g for 5 minutes, and the supernatant was discarded. The PE goat anti-Human IgG Fc antibody (ebioscience, Cat #12-4998-82) was diluted 250-fold with the staining buffer, with a volume of 100 μl per well added to the washed cell wells; the mixture was mixed evenly, and stained at 4° C. for 30 minutes. After the staining, similarly, the cells were washed twice with the staining buffer; finally, the cells were resuspended in 200 μl of staining buffer; signals were detected by a flow cytometer (Thermo Attune NxT). The stronger the signal, the stronger the binding ability of an antibody to TNFR2. The binding curve of an antibody was drawn with antibody concentration as the abscissa and corresponding mean fluorescence intensity (MFI) fold as the ordinate, and fitted with four parameters (GraphPad Prism9) to calculate the EC50 value.
(In general: A flow cytometer gives signals particle by particle.)

Assay [3] addresses T2, human TNFR2 on the surface of CHO-TNFR2 …. Briefly: flow cytometry on CHO-TNFR2 cells; EC50 against 219-WT. The procedure:
as §2

Assay [4] deals with T1, human TNFR2 (Novoprotein, Cat #C830). In words: competition ELISA, competitor human TNFα-Biotin; IC50 against 001-WT. The procedure: as §1

B1: 219-Hu3 (antibody, V domains shown)
VH: QVQLVQSGAEVKKPGSSVKVSCKASGYSFTNYWMNWVRQAPGQGLEWMGMIHPSDTETRLNQNFKDRVTITADKSTSTAYMELSSLRSEDTAVYYCARGEGLGAARSVSMDYWGQGTLVTVSS
VL: DIQMTQSPSSLSASVGDRVTITCRASQDISNYLNWYQQKPDGTVKLLIYYTAILHSGVPSRFSGSGSGTDYSLTISSLQPEDFATYFCQQGNTLPWTFGQGTKVEIK
notes: also called VH5 + VL5
Take B1: the “% Relative activity (WT antibody/test antibody)” value in assay [1] is 103%; in assay [3] it was 145%. Further, in assay [2], the “% Relative activity (Test antibody/WT antibody)” value was determined as 96.4%.

B2: 219-Hu1 (antibody, V domains shown)
VH: QVQLVQSGAEVKKPGASVKVSCKASGYSFTNYWMNWVRQAPGQRLEWMGMIHPSDTETRLNQNFKDRVTITRDTSASTAYMELSSLRSEDTAVYYCARGEGLGAARSVSMDYWGQGTLVTVSS
VL: DIQMTQSPSSLSASVGDRVTITCRASQDISNYLNWYQQKPDGTVKLLIYYTAILHSGVPSRFSGSGSGTDYSLTISSLQPEDFATYFCQQGNTLPWTFGQGTKVEIK
notes: also called VH3 + VL5
For the molecule B2, the “% Relative activity (WT antibody/test antibody)” value in assay [1] was 105%; in assay [3] it was 100%. The “% Relative activity (Test antibody/WT antibody)” value in assay [2] worked out at 110%.

B3: 219-Hu4 (antibody, V domains shown)
VH: QVQLVQSGAEVKKPGSSVKVSCKASGYSFTNYWMNWVKQAPGQGLEWIGMIHPSDTETRLNQNFKDKATLTVDKSTSTAYMELSSLRSEDTAVYYCARGEGLGAARSVSMDYWGQGTLVTVSS
VL: DIQMTQSPSSLSASVGDRVTITCRASQDISNYLNWYQQKPDGTVKLLIYYTAILHSGVPSRFSGSGSGTDYSLTISSLQPEDFATYFCQQGNTLPWTFGQGTKVEIK
notes: also called VH6 + VL5
Take B3: the “% Relative activity (WT antibody/test antibody)” value was 105% in assay [1] and 142% in assay [3]. The “% Relative activity (Test antibody/WT antibody)” value in assay [2] is 95.6%.

B4: 219-Hu2 (antibody, V domains shown)
VH: QVQLVQSGAEVKKPGSSVKVSCKASGYSFTNYWMNWVRQAPGQGLEWMGMIHPSDTETRLNQNFKDKATITADKSTSTAYMELSSLRSEDTAVYYCARGEGLGAARSVSMDYWGQGTLVTVSS
VL: DIQMTQSPSSLSASVGDRVTITCRASQDISNYLNWYQQKPDGTVKLLIYYTAILHSGVPSRFSGSGSGTDYSLTISSLQPEDFATYFCQQGNTLPWTFGQGTKVEIK
notes: also called VH4 + VL5
On to B4, for which the “% Relative activity (WT antibody/test antibody)” value was determined as 104% in assay [1] and 97.1% in assay [3]. Further, the “% Relative activity (Test antibody/WT antibody)” value in assay [2] came out at 103%.

B5: 219-Hu5 (antibody, V domains shown)
VH: QVQLVQSGAEVKKPGSSVKVSCKASGYSFTNYWMNWVRQAPGQGLEWMGMIHPSDTETRLNQNFKDRVTITVDKSTSTAYMELSSLRSEDTAVYYCARGEGLGAARSVSMDYWGQGTLVTVSS
VL: DIQMTQSPSSLSASVGDRVTITCRASQDISNYLNWYQQKPDGTVKLLIYYTAILHSGVPSRFSGSGSGTDYSLTISSLQPEDFATYFCQQGNTLPWTFGQGTKVEIK
notes: also called VH7 + VL5
With B5, the “% Relative activity (WT antibody/test antibody)” value in assay [1] came to 106%; in assay [3] it was 147%. The “% Relative activity (Test antibody/WT antibody)” value in assay [2] stood at 93.3%.

B6: 001-Hu5 (antibody, V domains shown)
VH: EVQLVESGGGLVQPGGSLRLSCAASGFAFSTYDLSWVRQAPGKGLEWVAYINNGGISTYYSDTVKGRFTISRDNAKNTLYLQMNSLRAEDTAVYYCVRGPFYGSANYFDYWGQGTLVTVSS
VL: DIQMTQSPSSLSASVGDRVTITCRTSESIYSNLPWYQQKPGKSPKLLVYDATKLAEGVPSRFSGSGSGTDYTLTISSLQPEDFATYYCQHFWVTPWTFGQGTKVEIK
notes: Humanized form of #001; also called VH1 + VL4
Take B6: the “% Relative activity (WT antibody/test antibody)” value in assay [4] amounted to 96.5%.

B7: 001-Hu3 (antibody, V domains shown)
VH: EVQLVESGGGLVQPGGSLRLSCAASGFAFSTYDLSWVRQAPGKGLEWVAYINNGGISTYYSDTVKGRFTISRDNAKNTLYLQMNSLRAEDTAVYYCVRGPFYGSANYFDYWGQGTLVTVSS
VL: DIQMTQSPSSLSASVGDRVTITCRTSESIYSNLPWYQQKPGKAPKLLIYDATKLAEGVPSRFSGSGSGTDYTLTISSLQPEDFATYYCQHFWVTPWTFGQGTKVEIK
notes: Humanized form of #001; also called VH1 + VL3
As for B7, in assay [4], the “% Relative activity (WT antibody/test antibody)” value came out at 105%.

B8: 001-Hu1 (antibody, V domains shown)
VH: EVQLVESGGGLVQPGGSLRLSCAASGFAFSTYDLSWVRQAPGKGLEWVAYINNGGISTYYSDTVKGRFTISRDNAKNTLYLQMNSLRAEDTAVYYCVRGPFYGSANYFDYWGQGTLVTVSS
VL: DIQMTQSPSSLSASVGDRVTITCRTSESIYSNLPWYQQKPGKAPKLLLYDATKLAEGVPSRFSGSGSGTDYTLTISSLQPEDFATYYCQHFWVTPWTFGQGTKVEIK
notes: Humanized form of #001; also called VH1 + VL1
B8: the “% Relative activity (WT antibody/test antibody)” value in assay [4] is 94.7%.

B9: 001-Hu4 (antibody, V domains shown)
VH: EVQLVESGGGLVQPGGSLRLSCAASGFAFSTYDLSWVRQAPGKGLEWVAYINNGGISTYYSDTVKGRFTISRDNAKNSLYLQMNSLRAEDTAVYYCVRGPFYGSANYFDYWGQGTLVTVSS
VL: DIQMTQSPSSLSASVGDRVTITCRTSESIYSNLPWYQQKPGKSPKLLVYDATKLAEGVPSRFSGSGSGTDYTLTISSLQPEDFATYYCQHFWVTPWTFGQGTKVEIK
notes: Humanized form of #001; also called VH2 + VL4
Consider B9, for which the “% Relative activity (WT antibody/test antibody)” value in assay [4] amounted to 105%.

B10: 001-Hu2 (antibody, V domains shown)
VH: EVQLVESGGGLVQPGGSLRLSCAASGFAFSTYDLSWVRQAPGKGLEWVAYINNGGISTYYSDTVKGRFTISRDNAKNSLYLQMNSLRAEDTAVYYCVRGPFYGSANYFDYWGQGTLVTVSS
VL: DIQMTQSPSSLSASVGDRVTITCRTSESIYSNLPWYQQKPGKSPKLLIYDATKLAEGVPSRFSGSGSGTDFTLTISSLQPEDFATYYCQHFWVTPWTFGQGTKVEIK
notes: Humanized form of #001; also called VH2 + VL2
As for B10, the “% Relative activity (WT antibody/test antibody)” value in assay [4] amounted to 82.8%.

Values taken from patent US20240109974A1 (SHANDONG SIMCERE BIOPHARMACEUTICAL, published 2024).
